Seven variants from the supplement of paper PMC12338614 can be followed below.

First the molecules themselves.
B1: library; numbered along this chain (parent)
chain: MEVVDPQQLGMFTEGELMSVGMDTFIHRIDSTEVIYQPRRKRAKLIGKYLMGDLLGEGSYGKVKEVLDSETLCRRAVKILKKKKLRRIPNGEANVKKEIQLLRRLRHKNVIQLVDVLYNEEKQKMYMVMEYCVCGMQEMLDSVPEKRFPVCQAHGYFCQLIDGLEYLHSQGIVHKDIKPGNLLLTTGGTLKISDLGVAEALHPFAADDTCRTSQGSPAFQPPEIANGLDTFSGFKVDIWSAGVTLYNITTGLYPFEGDNIYKLFENIGKGSYAIPGDCGPPLSDLLKGMLEYEPAKRFSIRQIRQHSWFRKKHPPAEAPVPIPPSPDTKDRWRSMTVVPYLEDLHGADEDEDLFDIEDDIIYTQDFTVPGQVPEEEASHNGQRRGLPKAVCMNGTEAAQLSTKSRAEGRAPNPARKACSASSKIRRLSACKQQ

± gives the uncertainty stated by the source.

In the series the parent is B1. The series is described as follows: STK11 functional score (HeLa growth suppression), rescaled enrichment; synonymous median = 1, nonsense median = 0 (normalised score). The settings on record: with HeLa; variant type: missense. The essentials:
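The functional score takes the post/pre-selection log ratio, corrects it to wild type, rescales it to synonymous and nonsense medians, and merges it over codons and replicate transfections, with error from bootstrapping. Counts came from tiled gDNA amplicons sequenced on NextSeq (~2 million reads per tile). The libraries were POPCode codon-randomised, codon-optimised STK11 integrated by Bxb1 at an AAVS1 landing pad in HeLa, three regions with three transfections each.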
MEVVDPQQLGMFTEGELMSVGMDTFIHRIDSTEVIYQPRRKRAKLIGKYLMGDLLGEGSYGKVKEVLDSETLCRRAVKILKKKKLRRIPNGEANVKKEIQLLRRLRHKNVIQLVDVLYNEEKQKMYMVMEYCVCGMQEMLDSVPEKRFPVCQAHGYFCQLIDGLEYLHSQGIVHKDIKPGNLLLTTGGTLKISDLGVAEALHPFAADDTCRTSQGSPAFQPPEIANGLDTFSGFKVDIWSAGVTLYNITTGLYPFEGDNIYKLFENIGKGSYAIPGDCGPPLSDLLKGMLEYEPAKRFSIRQIRQHSWFRKKHPPAEAPVPIPPSPDTKDRWRSMTVVPYLEDLHGADEDEDLFDIEDDIIYTQDFTVPGQVPEEEASHNGQRRGLPKAVCMNGTEAAQLSWKSRAEGRAPNPARKACSASSKIRRLSACKQQ [T402W]: the STK11 functional score amounted to 1.44 ± 0.23. Next, MEVVDPQQLGMFTEGELMSVGMDTFIHRIDSTEVIYQPRRKRAKLIGKYLMGDLLGEGSYGKVKEVLDSETLCRRAVKILKKKKLRRIPNGEANVKKEIQLLRRLRHKNVIQLVDVLYNEEKQKMYMVMEYCVCGMQEMLDSVPEKRFPVCQAHGYFCQLIDGLEYLHSQGIVHKDIKPGNLLLTTGGTLKISDLGVAEALHPFAADDTCRTSQGSPAFQPPEIANGLDTFSGFKVDIWSAGVTLYNITTGLYPFEGDNIYKLFENIGKGSYAIPGDCGPPLSDLLKGMLEYEPAKRFSIRQIRQHSWFRKKHPPAEAPVPIPPSPDTKDRWRSMTVVPYLEDLHGADEDEDLFDIEDDIIYTQDFTVPGQVPEEEASHNGQRRGLPKAVCMNGTEAAQLSYKSRAEGRAPNPARKACSASSKIRRLSACKQQ [T402Y]: 1.43 ± 0.37; MEVVDPQQLGMFTEGELMSVGMDTFIHRIDSTEVIYQPRRKRAKLIGKYLMGDLLGEGSYGKVKEVLDSETLCRRAVKILKKKKLRRIPNGEANVKKEIQLLRRLRHKNVIQLVDVLYNEEKQKMYMVMEYCVCGMQEMLDSVPEKRFPVCQAHGYFCQLIDGLEYLHSQGIVHKDIKPGNLLLTTGGTLKISDLGVAEALHPFAADDTCRTSQGSPAFQPPEIANGLDTFSGFKVDIWSAGVTLYNITTGLYPFEGDNIYKLFENIGKGSYAIPGDCGPPLSDLLKGMLEYEPAKRFSIRQIRQHSWFRKKHPPAEAPVPIPPSPDTKDRWRSMTVVPYLEDLHGADEDEDLFDIEDDIIYTQDFTVPGQVPEEEASHNGQRRGLPKAVCMNGTEAAQLSTASRAEGRAPNPARKACSASSKIRRLSACKQQ [K403A]: 1.6 ± 0.27; MEVVDPQQLGMFTEGELMSVGMDTFIHRIDSTEVIYQPRRKRAKLIGKYLMGDLLGEGSYGKVKEVLDSETLCRRAVKILKKKKLRRIPNGEANVKKEIQLLRRLRHKNVIQLVDVLYNEEKQKMYMVMEYCVCGMQEMLDSVPEKRFPVCQAHGYFCQLIDGLEYLHSQGIVHKDIKPGNLLLTTGGTLKISDLGVAEALHPFAADDTCRTSQGSPAFQPPEIANGLDTFSGFKVDIWSAGVTLYNITTGLYPFEGDNIYKLFENIGKGSYAIPGDCGPPLSDLLKGMLEYEPAKRFSIRQIRQHSWFRKKHPPAEAPVPIPPSPDTKDRWRSMTVVPYLEDLHGADEDEDLFDIEDDIIYTQDFTVPGQVPEEEASHNGQRRGLPKAVCMNGTEAAQLSTCSRAEGRAPNPARKACSASSKIRRLSACKQQ [K403C]: 0.656 ± 0.13. To MEVVDPQQLGMFTEGELMSVGMDTFIHRIDSTEVIYQPRRKRAKLIGKYLMGDLLGEGSYGKVKEVLDSETLCRRAVKILKKKKLRRIPNGEANVKKEIQLLRRLRHKNVIQLVDVLYNEEKQKMYMVMEYCVCGMQEMLDSVPEKRFPVCQAHGYFCQLIDGLEYLHSQGIVHKDIKPGNLLLTTGGTLKISDLGVAEALHPFAADDTCRTSQGSPAFQPPEIANGLDTFSGFKVDIWSAGVTLYNITTGLYPFEGDNIYKLFENIGKGSYAIPGDCGPPLSDLLKGMLEYEPAKRFSIRQIRQHSWFRKKHPPAEAPVPIPPSPDTKDRWRSMTVVPYLEDLHGADEDEDLFDIEDDIIYTQDFTVPGQVPEEEASHNGQRRGLPKAVCMNGTEAAQLSTFSRAEGRAPNPARKACSASSKIRRLSACKQQ [K403F] belongs 1.2 ± 0.23; to MEVVDPQQLGMFTEGELMSVGMDTFIHRIDSTEVIYQPRRKRAKLIGKYLMGDLLGEGSYGKVKEVLDSETLCRRAVKILKKKKLRRIPNGEANVKKEIQLLRRLRHKNVIQLVDVLYNEEKQKMYMVMEYCVCGMQEMLDSVPEKRFPVCQAHGYFCQLIDGLEYLHSQGIVHKDIKPGNLLLTTGGTLKISDLGVAEALHPFAADDTCRTSQGSPAFQPPEIANGLDTFSGFKVDIWSAGVTLYNITTGLYPFEGDNIYKLFENIGKGSYAIPGDCGPPLSDLLKGMLEYEPAKRFSIRQIRQHSWFRKKHPPAEAPVPIPPSPDTKDRWRSMTVVPYLEDLHGADEDEDLFDIEDDIIYTQDFTVPGQVPEEEASHNGQRRGLPKAVCMNGTEAAQLSTDSRAEGRAPNPARKACSASSKIRRLSACKQQ [K403D], 1.53 ± 0.2; to MEVVDPQQLGMFTEGELMSVGMDTFIHRIDSTEVIYQPRRKRAKLIGKYLMGDLLGEGSYGKVKEVLDSETLCRRAVKILKKKKLRRIPNGEANVKKEIQLLRRLRHKNVIQLVDVLYNEEKQKMYMVMEYCVCGMQEMLDSVPEKRFPVCQAHGYFCQLIDGLEYLHSQGIVHKDIKPGNLLLTTGGTLKISDLGVAEALHPFAADDTCRTSQGSPAFQPPEIANGLDTFSGFKVDIWSAGVTLYNITTGLYPFEGDNIYKLFENIGKGSYAIPGDCGPPLSDLLKGMLEYEPAKRFSIRQIRQHSWFRKKHPPAEAPVPIPPSPDTKDRWRSMTVVPYLEDLHGADEDEDLFDIEDDIIYTQDFTVPGQVPEEEASHNGQRRGLPKAVCMNGTEAAQLSTGSRAEGRAPNPARKACSASSKIRRLSACKQQ [K403G], 1.46 ± 0.23.
